Key:
MM.1S-luc = test: BCMAxCD3 bispecific mediated cell killing with human T cells, with or without GSI; assay type: cell-based; conditions: for MM.1S cell viability (% control): 60 hours, with or without 1 μM GSI
Description: (§1) CD3^+ T cells from PBMCs (Stem Cell Technologies) were negatively selected using EasySep Human T cell enrichment kit (Stem Cell Technologies). Multiple myeloma cells expressing luciferase (MM.1S-luc, OPM2-luc, H929-luc, Molp8-luc, RPM18226-luc) were treated with 1 μM GSI […]. After 24 hours, cells were seeded with 50,000 CD3^+ pan T cells in a clear 96-well V-bottom plate. Cells were further treated with a range of BCMAxCD3 bispecific antibody concentrations with or without 1 μM GSI. 60 hours after treatment, luciferase activity in treated cells was analyzed using NeoLite reagent kit (Perkin Elmer) and acquired on VictorX multimode plate reader (Perkin Elmer). Cell viability was calculated by dividing luciferase activity of treated cells over luciferase activity of untreated control (no BCMAxCD3 bispecific antibody added).

OPM2-luc = test: as above; assay type: cell-based; conditions: for OPM2 cell viability (% control): 60 hours, with or without 1 μM GSI
Description: as §1

RPMI8226 = test: as above; assay type: cell-based; conditions: for RPMI8226 cell viability (% control): 60 hours, with or without 1 μM GSI
Description: as §1

H929-luc = test: as above; assay type: cell-based; conditions: 60 hours, with or without 1 μM GSI
Description: as §1

Molp8-luc = test: as above; assay type: cell-based; conditions: 60 hours, with or without 1 μM GSI
Description: as §1

[1] = First in human Phase 1 clinical study: safety (CRS, DLT); assay type: in vivo
Source text: This Example illustrates an ongoing Phase 1 open-label, multicenter clinical study of PF-06863135 (BCMAxCD3 bispecific) as monotherapy and in combination with sasanlimab, lenalidomide or pomalidomide, in adult patients with advanced multiple myeloma who have relapsed from or are refractory to standard therapy. The study has been registered on ClinicalTrials.gov with identifier NCT03269136 and was first posted August 2017. Study results for Part 1 of the trial and additional arms for the study are described in this Example.
Part 1 of the Study is the […] single agent dose escalation arm at the dose levels of 0.1, 0.3, 1, 3, 10, 30, and 50 μg/kg Q1W by intravenous (IV) administration, and at the dose levels of 80, 130, 215, 360, 600 and 1000 μg/kg Q1W by subcutaneous (SC) administration. Upon reaching maximum tolerated dose (MTD)/maximum administered dose (MAD), patients can be treated at a dose level selected from the foregoing dose levels described in this paragraph, and below the MTD/MAD fora Q2W administration, both IV and SC, to further support the recommended phase 2 dose (RP2D) decision. For the study, dose limiting toxicity observation period is set at 21 days for Q1W dosing and 28 days for Q2W dosing. The treatment cycle, aka cycle, for Q1W dosing would be 3 weeks, and for Q2W dosing would be four weeks.
Clinical Outcome of Part 1 of the Study. As of 15 Apr. 2020, a total of 23 patients were enrolled in Part 1 of the study and had been treated with PF-06863135 administered intravenously (IV) at 0.1 (N=2), 0.3 (N=3), 1 (N=2), 3 (N=3), 10 (N=2), 30 (N=5), and 50 (N=6) μg/kg. As of Aug. 21, 2020, a total of 30 patients were enrolled in Part 1 of the study and had been treated with PF-06863135 administered subcutaneously (SC) at 80 (N=6), 130 (N=4), 215 (N=4), 360 (N=4), 600 (N=6) and 1000 (N=6) μg/kg. Safety and efficacy data were available for in 23 IV and 30 SC treated patients per IMWG (International Myeloma Working Group) criteria.
Part 1.1 of the Study is an alternative maintenance dose escalation arm for single agent PF-06863135. If excessive toxicity occurs or the maximum tolerated dose (MTD)/maximum administered dose (MAD) is reached at a dose level that is earlier than desired in Part 1 of the study described above, a priming dose will be administered one week prior to the day 1 cycle 1 administration of the dose (maintenance dose) at this dose level and for all subsequent dose levels in the dose escalation that may be initiated for Part 1.1. The priming dosing will be at a lower dose level than the maintenance dose.

[2] = 600 μg/kg priming, 1000 μg/kg Q1W or Q2W SC, N = 20

CCC[C@H](N[C@H]1CCc2cc(F)cc(F)c2C1)C(=O)Nc1cn(C(C)(C)CNCC(C)(C)C)cn1 [GSI, nirogacestat]
Enhancement of BCMAxCD3 bispecific antibody mediated cell killing by GSI (MM.1S-luc; MM.1S, 1 μM GSI): 21 × | Enhancement of BCMAxCD3 bispecific antibody mediated cell killing by GSI (OPM2-luc; OPM2, 1 μM GSI): 21 × | Enhancement of BCMAxCD3 bispecific antibody mediated cell killing by GSI (RPMI8226; RPMI8226, 1 μM GSI): 24 ×

PF-06863135: heterodimeric humanized full-length bispecific antibody with one BCMA binding arm and one CD3 binding arm
H929 cell viability (% control) (H929-luc; BCMA × CD3 0.00001 nM): 80.2 ± 0.3 % control | H929 cell viability (% control) (H929-luc; BCMA × CD3 0.00005 nM): 81.1 ± 0.2 % control | H929 cell viability (% control) (H929-luc; BCMA × CD3 0.00026 nM): 79 ± 0.8 % control | H929 cell viability (% control) (H929-luc; BCMA × CD3 0.00128 nM): 77.8 ± 3.3 % control | H929 cell viability (% control) (H929-luc; BCMA × CD3 0.0064 nM): 81.2 ± 3^ % control | H929 cell viability (% control) (H929-luc; BCMA × CD3 0.032 nM): 98.6 ± 1.2 % control | H929 cell viability (% control) (H929-luc; BCMA × CD3 0.16 nM): 23.2 ± 7.2 % control | H929 cell viability (% control) (H929-luc; BCMA × CD3 0.8 nM): 11.3 ± 1.5 % control | H929 cell viability (% control) (H929-luc; BCMA × CD3 4 nM): 8.6 ± 3 % control | MM.1S cell viability (% control) (MM.1S-luc; BCMA × CD3 0.00001 nM): 80.6 ± 3.9 % control | MM.1S cell viability (% control) (MM.1S-luc; BCMA × CD3 0.00005 nM): 79.8 ± 2.9 % control | MM.1S cell viability (% control) (MM.1S-luc; BCMA × CD3 0.00026 nM): 78 ± 0.9 % control | MM.1S cell viability (% control) (MM.1S-luc; BCMA × CD3 0.00128 nM): 87.7 ± 4.4 % control | MM.1S cell viability (% control) (MM.1S-luc; BCMA × CD3 0.0064 nM): 108 ± 4.5 % control | MM.1S cell viability (% control) (MM.1S-luc; BCMA × CD3 0.032 nM): 2.5 ± 0.3 % control | MM.1S cell viability (% control) (MM.1S-luc; BCMA × CD3 0.16 nM): 1.7 ± 0.8 % control | MM.1S cell viability (% control) (MM.1S-luc; BCMA × CD3 0.8 nM): 2.4 ± 0.5 % control | MM.1S cell viability (% control) (MM.1S-luc; BCMA × CD3 4 nM): 1.3 ± 0.8 % control | Molp8 cell viability (% control) (Molp8-luc; BCMA × CD3 0.00001 nM): 64 ± 11.6 % control | Molp8 cell viability (% control) (Molp8-luc; BCMA × CD3 0.00005 nM): 59.1 ± 4.6 % control | Molp8 cell viability (% control) (Molp8-luc; BCMA × CD3 0.00026 nM): 58.5 ± 0.6 % control | Molp8 cell viability (% control) (Molp8-luc; BCMA × CD3 0.00128 nM): 66.7 ± 0.3 % control | Molp8 cell viability (% control) (Molp8-luc; BCMA × CD3 0.0064 nM): 55.2 ± 1.3 % control | Molp8 cell viability (% control) (Molp8-luc; BCMA × CD3 0.032 nM): 66.1 ± 4.9 % control | Molp8 cell viability (% control) (Molp8-luc; BCMA × CD3 0.16 nM): 8 ± 2 % control | Molp8 cell viability (% control) (Molp8-luc; BCMA × CD3 0.8 nM): 6.1 ± 0.7 % control | Molp8 cell viability (% control) (Molp8-luc; BCMA × CD3 4 nM): 5.2 ± 0.3 % control | OPM2 cell viability (% control) (OPM2-luc; BCMAxCD3 0.00064 nM): 83.8 ± 3.4 % control | OPM2 cell viability (% control) (OPM2-luc; BCMAxCD3 0.0032 nM): 84.3 ± 3.1 % control | OPM2 cell viability (% control) (OPM2-luc; BCMAxCD3 0.016 nM): 68.4 ± 2.4 % control | OPM2 cell viability (% control) (OPM2-luc; BCMAxCD3 0.08 nM): 43.6 ± 6.4 % control | OPM2 cell viability (% control) (OPM2-luc; BCMAxCD3 0.4 nM): 3.1 ± 0.8 % control | OPM2 cell viability (% control) (OPM2-luc; BCMAxCD3 2 nM): 2.8 ± 0.8 % control | OPM2 cell viability (% control) (OPM2-luc; BCMAxCD3 10 nM): 2 ± 0.2 % control | OPM2 cell viability (% control) (OPM2-luc; BCMAxCD3 50 nM): 3.3 ± 0.3 % control | RPMI8226 cell viability (% control) (RPMI8226; BCMAxCD3 0.00064 nM): 113.2 ± 10.6 % control | RPMI8226 cell viability (% control) (RPMI8226; BCMAxCD3 0.0032 nM): 130.5 ± 19.5 % control | RPMI8226 cell viability (% control) (RPMI8226; BCMAxCD3 0.016 nM): 113.4 ± 1.3 % control | RPMI8226 cell viability (% control) (RPMI8226; BCMAxCD3 0.08 nM): 54.2 ± 16.9 % control | RPMI8226 cell viability (% control) (RPMI8226; BCMAxCD3 0.4 nM): 28.7 ± 13.6 % control | RPMI8226 cell viability (% control) (RPMI8226; BCMAxCD3 2 nM): 25.7 ± 5.5 % control | RPMI8226 cell viability (% control) (RPMI8226; BCMAxCD3 10 nM): 19.9 ± 1.1 % control | RPMI8226 cell viability (% control) (RPMI8226; BCMAxCD3 50 nM): 19.4 ± 5 % control | CRS observed, patient(s) ([1]; 10 μg/kg IV cohort): 1 (50.0%) | CRS observed, patient(s) ([1]; 30 μg/kg IV cohort): 4 (80.0%) | Patients who experienced dose limiting toxicities (DLTs) ([1]; 30 μg/kg IV cohort): 1 patient | Patients in whom CRS also occurred after later doses (second to fourth) ([1]; 50 μg/kg IV): 3 patients | CRS observed, patient(s) ([1]; 50 μg/kg IV cohort): 6 (100.0%) | Patients who experienced dose limiting toxicities (DLTs) ([1]; 50 μg/kg IV cohort): 1 patient | CRS Grade 1 (patients) ([1]; 80 μg/kg Q1W SC, N = 6): 2 | CRS Grade 2 (patients) ([1]; 80 μg/kg Q1W SC, N = 6): 1 | CRS Mean duration ([1]; 80 μg/kg Q1W SC, N = 6): 1 days | Patients with CRS ([1]; 80 μg/kg Q1W SC, N = 6): 3 (50%) | CRS Grade 1 (patients) ([1]; 130 μg/kg Q1W SC, N = 4): 2 | CRS Grade 2 (patients) ([1]; 130 μg/kg Q1W SC, N = 4): 0 | CRS Mean duration ([1]; 130 μg/kg Q1W SC, N = 4): 3 days | Patients with CRS ([1]; 130 μg/kg Q1W SC, N = 4): 2 (50%) | CRS Grade 1 (patients) ([1]; 215 μg/kg Q1W SC, N = 4): 3 | CRS Grade 2 (patients) ([1]; 215 μg/kg Q1W SC, N = 4): 0 | CRS Mean duration ([1]; 215 μg/kg Q1W SC, N = 4): 3 days | Patients with CRS ([1]; 215 μg/kg Q1W SC, N = 4): 3 (75%) | CRS Grade 1 (patients) ([1]; 360 μg/kg Q1W SC, N = 4): 2 | CRS Grade 2 (patients) ([1]; 360 μg/kg Q1W SC, N = 4): 1 | CRS Mean duration ([1]; 360 μg/kg Q1W SC, N = 4): 1.7 days | Patients with CRS ([1]; 360 μg/kg Q1W SC, N = 4): 3 (75%) | CRS Grade 1 (patients) ([1]; 600 μg/kg Q1W SC, N = 6): 4 | CRS Grade 2 (patients) ([1]; 600 μg/kg Q1W SC, N = 6): 2 | CRS Mean duration ([1]; 600 μg/kg Q1W SC, N = 6): 1.7 days | Patients with CRS ([1]; 600 μg/kg Q1W SC, N = 6): 6 (100%) | Decrease of medium duration of CRS by introducing priming dose ([1]; 600 μg/kg priming then 1000 μg/kg vs 1000 μg/kg without priming, SC): 50% | CRS Grade 1 (patients) [1, 2]: 11 | CRS Grade 2 (patients) [1, 2]: 9 | CRS Mean duration [1, 2]: 2 days | Patients with CRS [1, 2]: 20 (100%) | CRS Grade 1 (patients) ([1]; 1000 μg/kg Q1W SC, N = 6): 5 | CRS Grade 2 (patients) ([1]; 1000 μg/kg Q1W SC, N = 6): 1 | CRS Mean duration ([1]; 1000 μg/kg Q1W SC, N = 6): 4 days | Patients with CRS ([1]; 1000 μg/kg Q1W SC, N = 6): 6 (100%) | Patients who experienced dose limiting toxicities (DLTs) ([1]; IV cohorts, 23 patients, febrile neutropenia Grade 3 and electrocardiogram QT prolongation Grade 1): 2 patients | CRS onset after dosing ([1]; IV cohorts, each of the 11 patients with CRS): ≤ 2 days | Impact of dose frequency (Q1W v. Q2W) on the CRS ([1]; Part 1.1, 600 μg/kg priming, 1000 μg/kg SC): no impact | Patients who experienced dose limiting toxicities (DLTs) ([1]; SC cohorts (80-1000 μg/kg)): No patients | CRS onset after dosing ([1]; SC cohorts, primarily): ≤ 2 days | Patients who experienced maximum Grade 1 CRS ([1]; all IV treated patients): 6 (26.1%) | Patients who experienced maximum Grade 2 CRS ([1]; all IV treated patients): 5 (21.7%) | Patients who experienced maximum Grade 1 CRS ([1]; all SC treated patients): 18 (60.0%) | Patients who experienced maximum Grade 2 CRS ([1]; all SC treated patients): 5 (16.7%) | CRS severity in SC-treated vs IV-treated patients ([1]; despite higher overall dose exposure in SC-treated patients): less severe CRS | Toxicities ([1]; highest dose levels of 600 and 1000 μg/kg SC): tolerable and manageable

Source: patent publication US20230192878A1, “METHODS, THERAPIES AND USES FOR TREATING CANCER” (PFIZER INC., priority 2020, published 2023)
